Our source for the self-cleavage values is the RNAGym collection of RNA variant scans (doi:10.7554/elife.90254).

B1: LINE1-full (parent)
chain: UACGUAGGUGGUUUUCCCCUGAUAGUGCUAAGGGGGCCUGGAAGUUUGGACUGGGCAGAGCUCAACACAGCGUGGCAAAGUGGCUGUGGCUAGACUGCCUCUCUGGAUUCCUCGUCACUCAGCAGGGCAUCUCUGAGAGAAAUGCC

This series covers variants of B1. Kind of series: self-cleavage, relative activity (ratio to wild type); higher = more cleavage; in vitro, sequencing; the parent is a self-cleaving ribozyme.
On to U96C A117U, for which the self-cleavage was 0.1.

For C98A A141G, the self-cleavage came out at 0.17.

Take C98U A142U: the self-cleavage came out at 0.47.

For U104A G106A, the self-cleavage was 0.84.

On to G97A U112A, for which the self-cleavage is 0.16.

Consider C101A A107G, for which the self-cleavage turned out to be 1.57.

With C95U U100C, the self-cleavage is 0.59.

Take U96C U132A: the self-cleavage amounted to 0.11.

Regarding U96C U132C, the self-cleavage is 0.11.

Take C95G U104C: the self-cleavage came to 0.02.

Take C99U U119A: the self-cleavage is 0.79.

Regarding C99U U119C, the self-cleavage came to 0.96.

In the case of U102A G135A, the self-cleavage was found to be 1.47.

For the variant C101A U132C, the self-cleavage turned out to be 1.39.

For the variant C95A U115C, the self-cleavage was determined as 0.11.

For the variant U96A U109A, the self-cleavage is 0.05.

U96C U130C: the self-cleavage is 0.24.

Turning to U96A A140U, the self-cleavage was determined as 0.

Turning to U96A A140G, the self-cleavage turned out to be 0.06.

Consider C98U U108C, for which the self-cleavage amounted to 0.48.

Regarding G97U C123U, the self-cleavage turned out to be 0.03.

For U102C A136C, the self-cleavage is 0.97.

As for U102C A136U, the self-cleavage turned out to be 1.8.

Regarding U102G U143A, the self-cleavage was 0.84.

In the case of U100C C128U, the self-cleavage turned out to be 1.58.

As to U96G U132C, the self-cleavage was found to be 0.16.

Take U102A A121G: the self-cleavage amounted to 1.64.

For the variant C99A A136G, the self-cleavage is 0.99.

As to C99U A107G, the self-cleavage amounted to 0.83.

On to U104A A138G, for which the self-cleavage is 1.34.

As to C98U U134C, the self-cleavage came out at 0.3.

For the variant U96A U119A, the self-cleavage was determined as 0.09.

In the case of U96A U119C, the self-cleavage stood at 0.11.

For U102C U115A, the self-cleavage amounted to 1.51.

For the variant U102C U115C, the self-cleavage came out at 2.02.

C103A A142G: the self-cleavage was 1.41.

As for G97A U109C, the self-cleavage was determined as 0.05.

On to G97A U109A, for which the self-cleavage was determined as 0.07.

On to U102C A129G, for which the self-cleavage came to 1.51.

U100A G125A: the self-cleavage is 1.05.

Regarding U100A C103U, the self-cleavage was determined as 0.44.

With U96C A140U, the self-cleavage was determined as 0.14.

With U100A U108G, the self-cleavage is 0.

In the case of C103G, the self-cleavage came to 1.25.

Regarding C103U, the self-cleavage stood at 1.23.

As to C103A, the self-cleavage was 1.38.

As to U102A A107G, the self-cleavage stood at 1.06.

U102A A107U: the self-cleavage was 1.66.

As to U96A C110U, the self-cleavage was determined as 0.08.

In the case of U102C U132C, the self-cleavage worked out at 1.75.

For U96A U130C, the self-cleavage came to 0.06.

As for U96A U130A, the self-cleavage worked out at 0.05.

For C101U G126A, the self-cleavage is 1.54.

On to U96A G122C, for which the self-cleavage turned out to be 0.07.

Consider U104A C118U, for which the self-cleavage came to 0.84.

In the case of U96C U115A, the self-cleavage stood at 0.13.

Regarding U96C U115G, the self-cleavage was 0.21.

U96C U115C: the self-cleavage is 0.32.

In the case of U96A A136G, the self-cleavage was 0.09.

For the variant U96A A136U, the self-cleavage was 0.09.

On to U100C U132C, for which the self-cleavage was 1.67.

G97U G127A: the self-cleavage is 0.04.

Take C95U C118A: the self-cleavage is 0.13.

Consider U104A A136G, for which the self-cleavage was 1.39.

Turning to C95A U104C, the self-cleavage was 0.08.

On to U104A A140U, for which the self-cleavage came to 1.03.

As to U96C U100A, the self-cleavage is 0.08.

For the variant U96C U100C, the self-cleavage was determined as 0.38.

Regarding C95U G135A, the self-cleavage worked out at 0.17.

As for G97C U102C, the self-cleavage was determined as 0.14.

U96C G126A: the self-cleavage is 0.15.

With U100A G137A, the self-cleavage came to 0.85.

Consider U96G A141G, for which the self-cleavage amounted to 0.

In the case of U102A A141G, the self-cleavage amounted to 1.42.

For the variant U102C U134C, the self-cleavage was 1.55.

With U102C U134A, the self-cleavage is 1.59.

As for C101U A138G, the self-cleavage turned out to be 1.69.

For the variant U102C A141G, the self-cleavage was found to be 1.39.

C101U A136G: the self-cleavage turned out to be 1.8.

In the case of G97U C145U, the self-cleavage was 0.04.

Consider C101A A141G, for which the self-cleavage is 1.64.

As to U100G C116U, the self-cleavage worked out at 1.61.

U102A A140U: the self-cleavage came out at 1.42.

In the case of U102A A140G, the self-cleavage turned out to be 1.62.

With C95U A138U, the self-cleavage came to 0.2.

Take C99U C145U: the self-cleavage was 0.82.

Regarding C95A U108C, the self-cleavage came to 0.

On to U96C A141G, for which the self-cleavage stood at 0.18.

Take U102C U143A: the self-cleavage worked out at 1.36.

With U100C A141U, the self-cleavage was determined as 1.08.

U96C A136C: the self-cleavage was determined as 0.

In the case of U96C A136U, the self-cleavage was 0.15.

Consider U96C A136G, for which the self-cleavage turned out to be 0.15.

Take C95U U130C: the self-cleavage worked out at 0.21.

For U102C U130A, the self-cleavage was determined as 2.21.

Regarding U100G G114A, the self-cleavage was 1.77.

Take U102C C145U: the self-cleavage was determined as 1.93.

Consider C99G A129G, for which the self-cleavage came out at 0.3.

Turning to U104A C120U, the self-cleavage came to 1.65.

With G97A A121G, the self-cleavage worked out at 0.05.

As for U96C U108A, the self-cleavage came to 0.09.

With U104A A141G, the self-cleavage was found to be 1.43.

Consider U104A A141C, for which the self-cleavage was 0.47.

As to C95U A129G, the self-cleavage was 0.19.

U96G U109A: the self-cleavage came to 0.

Turning to U96C A142G, the self-cleavage stood at 0.13.

U96C A142U: the self-cleavage came out at 0.12.

Turning to C103U U115A, the self-cleavage came to 1.72.

As to C103U U115C, the self-cleavage amounted to 1.51.

As for U96A U134A, the self-cleavage was 0.08.

For the variant C95U U104A, the self-cleavage worked out at 0.1.

C99A U119C: the self-cleavage was determined as 0.82.

Take U102C G105A: the self-cleavage is 2.14.

For U100C A142G, the self-cleavage amounted to 1.93.

For the variant U96C A138U, the self-cleavage was 0.1.

For G97A A136G, the self-cleavage was determined as 0.19.

As for U96A A121U, the self-cleavage turned out to be 0.05.

U96A G127A: the self-cleavage was found to be 0.06.

On to U102A C120U, for which the self-cleavage came to 1.65.

For the variant U96C A121U, the self-cleavage stood at 0.13.

Take U104A A121U: the self-cleavage is 1.11.

As for U102G G144U, the self-cleavage amounted to 0.97.

Regarding U102A U119C, the self-cleavage was 2.01.

As for C98A A140G, the self-cleavage was 0.12.

Turning to U102C U108C, the self-cleavage amounted to 1.15.

In the case of U102C U108A, the self-cleavage was determined as 1.57.

For U100C A129U, the self-cleavage was 1.92.

On to U96C C146U, for which the self-cleavage was found to be 0.15.

For U96C C146A, the self-cleavage was determined as 0.25.

In the case of U100C G135A, the self-cleavage amounted to 1.74.

In the case of U96A U100C, the self-cleavage came to 0.08.

Consider C99A A129U, for which the self-cleavage was 0.46.

As for U96A U132C, the self-cleavage came to 0.12.

Take U102A U109C: the self-cleavage was 1.31.

Take U102A U109A: the self-cleavage worked out at 1.03.

In the case of C99U U134A, the self-cleavage came to 0.37.

On to C103A U143C, for which the self-cleavage turned out to be 1.1.

With U96A C113U, the self-cleavage was determined as 0.06.

Regarding U102A U112C, the self-cleavage stood at 0.96.

For U96A A124G, the self-cleavage came out at 0.06.

Take C98A C101U: the self-cleavage turned out to be 0.09.

As for U104A A129C, the self-cleavage was 1.61.

Take C95U U102C: the self-cleavage is 0.14.

Consider U96G U104A, for which the self-cleavage is 0.05.

For G97U U108C, the self-cleavage was found to be 0.06.

On to U100A C133U, for which the self-cleavage stood at 0.54.

Regarding U96G A142G, the self-cleavage turned out to be 0.17.

On to U100A A142G, for which the self-cleavage amounted to 0.77.

On to U100A A136C, for which the self-cleavage came to 1.05.

Turning to U96A C116A, the self-cleavage worked out at 0.21.

As to G97A U143C, the self-cleavage was determined as 0.16.

With U100C G122U, the self-cleavage stood at 1.76.

As for U100C G122C, the self-cleavage is 2.12.

In the case of U102C G122A, the self-cleavage is 1.66.

As for U100C A136U, the self-cleavage is 1.73.

Take U100C A136G: the self-cleavage amounted to 1.91.

For G97U U104A, the self-cleavage worked out at 0.02.

Turning to U102C A117C, the self-cleavage was 2.63.

Regarding U100G C113U, the self-cleavage was determined as 1.49.

C99U U143A: the self-cleavage is 0.39.

On to U96A U104C, for which the self-cleavage came out at 0.07.

In the case of U96A U104A, the self-cleavage was 0.07.

As to U102G A140G, the self-cleavage came to 0.39.

Take G97A U100A: the self-cleavage turned out to be 0.1.

With G97A U100C, the self-cleavage worked out at 0.33.

With G97C U108A, the self-cleavage turned out to be 0.14.

Turning to C101U U102C, the self-cleavage came to 1.49.
